Assay results published in the supplement of paper PMC10567573.

B1: NFE2L1 (parent)
chain: TLDGYGIHPKSIDLDNYFTARRLL
B2: TRAF3IP2 (parent)
chain: KEHVPTWLQNTHVYSWPKNKKNIL

Variants of: B1
Assay: protein stability index of a GFP-peptide fusion (GPS, HEK-293T) (PSI 1-6); higher = more stable
Settings: c terminus: a fixed tail appended
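Note: lentivirally expressed fusions sorted by FACS into six bins by GFP to DsRed ratio, PSI derived from sequencing read proportions per bin multiplied by bin number.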

In order of falling protein stability index:
1. WLDGYGIHPKSIDLDNYFTARRLL [T1W]  3.41
2. TLFGYGIHPKSIDLDNYFTARRLL [D3F]  3.12
3. TCDGYGIHPKSIDLDNYFTARRLL [L2C]  2.75
4. TPDGYGIHPKSIDLDNYFTARRLL [L2P]  2.68
5. TLAGYGIHPKSIDLDNYFTARRLL [D3A]  2.61
6. TIDGYGIHPKSIDLDNYFTARRLL [L2I]  2.61
7. TLLGYGIHPKSIDLDNYFTARRLL [D3L]  2.58
8. ALDGYGIHPKSIDLDNYFTARRLL [T1A]  2.49
9. TWDGYGIHPKSIDLDNYFTARRLL [L2W]  2.37
10. PLDGYGIHPKSIDLDNYFTARRLL [T1P]  2.37
11. TLKGYGIHPKSIDLDNYFTARRLL [D3K]  2.34
12. TLNGYGIHPKSIDLDNYFTARRLL [D3N]  2.33
13. YLDGYGIHPKSIDLDNYFTARRLL [T1Y]  2.32
14. TTDGYGIHPKSIDLDNYFTARRLL [L2T]  2.23
15. TKDGYGIHPKSIDLDNYFTARRLL [L2K]  2.19
16. TDDGYGIHPKSIDLDNYFTARRLL [L2D]  2.15
17. TLEGYGIHPKSIDLDNYFTARRLL [D3E]  2.14
18. TLMGYGIHPKSIDLDNYFTARRLL [D3M]  2.07
19. TLIGYGIHPKSIDLDNYFTARRLL [D3I]  2.06
20. TNDGYGIHPKSIDLDNYFTARRLL [L2N]  2.06
21. TEDGYGIHPKSIDLDNYFTARRLL [L2E]  2.05
22. TMDGYGIHPKSIDLDNYFTARRLL [L2M]  2.04
23. QLDGYGIHPKSIDLDNYFTARRLL [T1Q]  1.99
24. TFDGYGIHPKSIDLDNYFTARRLL [L2F]  1.97
25. TRDGYGIHPKSIDLDNYFTARRLL [L2R]  1.92
26. THDGYGIHPKSIDLDNYFTARRLL [L2H]  1.92
27. CLDGYGIHPKSIDLDNYFTARRLL [T1C]  1.92
28. DLDGYGIHPKSIDLDNYFTARRLL [T1D]  1.92
29. TGDGYGIHPKSIDLDNYFTARRLL [L2G]  1.86
30. SLDGYGIHPKSIDLDNYFTARRLL [T1S]  1.82
31. TLCGYGIHPKSIDLDNYFTARRLL [D3C]  1.77
32. MLDGYGIHPKSIDLDNYFTARRLL [T1M]  1.77
33. TYDGYGIHPKSIDLDNYFTARRLL [L2Y]  1.74
34. TVDGYGIHPKSIDLDNYFTARRLL [L2V]  1.74
35. TSDGYGIHPKSIDLDNYFTARRLL [L2S]  1.7
36. HLDGYGIHPKSIDLDNYFTARRLL [T1H]  1.69
37. TQDGYGIHPKSIDLDNYFTARRLL [L2Q]  1.66
38. RLDGYGIHPKSIDLDNYFTARRLL [T1R]  1.66
39. TLGGYGIHPKSIDLDNYFTARRLL [D3G]  1.65
40. TLPGYGIHPKSIDLDNYFTARRLL [D3P]  1.62
41. NLDGYGIHPKSIDLDNYFTARRLL [T1N]  1.61
42. TADGYGIHPKSIDLDNYFTARRLL [L2A]  1.58
43. LLDGYGIHPKSIDLDNYFTARRLL [T1L]  1.57
44. VLDGYGIHPKSIDLDNYFTARRLL [T1V]  1.55
45. ELDGYGIHPKSIDLDNYFTARRLL [T1E]  1.54
46. KLDGYGIHPKSIDLDNYFTARRLL [T1K]  1.52
47. GLDGYGIHPKSIDLDNYFTARRLL [T1G]  1.46
48. ILDGYGIHPKSIDLDNYFTARRLL [T1I]  1.36
49. FLDGYGIHPKSIDLDNYFTARRLL [T1F]  1.3
50. TLHGYGIHPKSIDLDNYFTARRLL [D3H]  1.25

Variants of: B2
Assay: as above
Settings: c terminus: a fixed tail appended

In order of falling protein stability index:
1. KEHVPTWLQNTHVYSWPKNKKNIG [L24G]  3.93
2. KEHVPTWLQNTHVYSWPKNKKNDL [I23D]  3.75
3. KEHVPTWLQNTHVYSWPKNKKNRL [I23R]  3.74
4. KEHVPTWLQNTHVYSWPKNKKNYL [I23Y]  3.55
5. KEHVPTWLQNTHVYSWPKNKKNEL [I23E]  3.54
6. KEHVPTWLQNTHVYSWPKNKKNKL [I23K]  3.52
7. KEHVPTWLQNTHVYSWPKNKKNIK [L24K]  3.49
8. KEHVPTWLQNTHVYSWPKNKKNIR [L24R]  3.49
9. KEHVPTWLQNTHVYSWPKNKKNIA [L24A]  3.28
10. KEHVPTWLQNTHVYSWPKNKKNID [L24D]  3.24
11. KEHVPTWLQNTHVYSWPKNKKNNL [I23N]  3.19
12. KEHVPTWLQNTHVYSWPKNKKNHL [I23H]  3.19
13. KEHVPTWLQNTHVYSWPKNKKNIT [L24T]  3.18
14. KEHVPTWLQNTHVYSWPKNKKNIH [L24H]  3.17
15. KEHVPTWLQNTHVYSWPKNKKNIN [L24N]  3.08
16. KEHVPTWLQNTHVYSWPKNKKNVL [I23V]  3.07
17. KEHVPTWLQNTHVYSWPKNKKNCL [I23C]  3.02
18. KEHVPTWLQNTHVYSWPKNKKNIQ [L24Q]  2.98
19. KEHVPTWLQNTHVYSWPKNKKNIP [L24P]  2.98
20. KEHVPTWLQNTHVYSWPKNKKNGL [I23G]  2.96
21. KEHVPTWLQNTHVYSWPKNKKNSL [I23S]  2.94
22. KEHVPTWLQNTHVYSWPKNKKNML [I23M]  2.91
23. KEHVPTWLQNTHVYSWPKNKKNAL [I23A]  2.89
24. KEHVPTWLQNTHVYSWPKNKKNIE [L24E]  2.84
25. KEHVPTWLQNTHVYSWPKNKKNQL [I23Q]  2.75
26. KEHVPTWLQNTHVYSWPKNKKTIL [N22T]  2.75
27. KEHVPTWLQNTHVYSWPKNKKNIM [L24M]  2.73
28. KEHVPTWLQNTHVYSWPKNKKQIL [N22Q]  2.72
29. KEHVPTWLQNTHVYSWPKNKKNFL [I23F]  2.69
30. KEHVPTWLQNTHVYSWPKNKKNIC [L24C]  2.69
31. KEHVPTWLQNTHVYSWPKNKKNLL [I23L]  2.68
32. KEHVPTWLQNTHVYSWPKNKKNII [L24I]  2.67
33. KEHVPTWLQNTHVYSWPKNKKNTL [I23T]  2.54
34. KEHVPTWLQNTHVYSWPKNKKNPL [I23P]  2.54
35. KEHVPTWLQNTHVYSWPKNKKVIL [N22V]  2.51
36. KEHVPTWLQNTHVYSWPKNKKNIS [L24S]  2.51
37. KEHVPTWLQNTHVYSWPKNKKNIY [L24Y]  2.51
38. KEHVPTWLQNTHVYSWPKNKKNIV [L24V]  2.47
39. KEHVPTWLQNTHVYSWPKNKKNWL [I23W]  2.3
40. KEHVPTWLQNTHVYSWPKNKKRIL [N22R]  2.2
41. KEHVPTWLQNTHVYSWPKNKKNIF [L24F]  2.2
42. KEHVPTWLQNTHVYSWPKNKKSIL [N22S]  1.97
43. KEHVPTWLQNTHVYSWPKNKKNIW [L24W]  1.86
44. KEHVPTWLQNTHVYSWPKNKKYIL [N22Y]  1.56
